According to US20230372448A1, “THERAPEUTIC USE OF LONG-ACTING CONJUGATE OF TRIPLE AGONIST ACTING ON ALL OF GLUCAGON, GLP-1 AND GIP RECEPTORS AGAINST MULTIPLE SCLEROSIS” (HANMI PHARM. CO. ,LTD., priority 2020, published 2023):
Positions of bridges follow the written chain, without caps; N, C: chain ends. Non-standard residues stand in square brackets, D forms with d. No end group written: not given here. *: point of attachment. Acetyl(2-(4-imidazolyl)) = O=C(Cc1c[nH]cn1)*; Aib = CC(C)(N)C(=O)O

The binders below were run against human GLP-1 receptor (human, UniProt P43220 24-463) (assay: cell-based or functional assay).

Binder	In vitro activity (%) compared with native peptide: vs GLP-1
Y[Aib]QGTFTSDYSKALDEKAAKEFVNWLLDQHPSSGQPPPSC (bridge 16-20) [triple agonist of SEQ ID NO: 101]	23.2%
Y[Aib]QGTFTSDYSKALDEKAAKDFVNWLLDHHPSSGQPPPSC (bridge 16-20; not fully specified) [triple agonist of SEQ ID NO: 99]	20.9%
Y[Aib]QGTFTSDYSKYLDEKRAKEFVQWLLDCHPSSGQPPPS (bridge 16-20; not fully specified) [triple agonist of SEQ ID NO: 97]	10.5%
{Acetyl(2-(4-imidazolyl))}-[Aib]QGTFTSDYSIAMDEIHQKDFVNWLLNTC (bridge 15-19; not fully specified) [triple agonist of SEQ ID NO: 87]	0.9%
Y[Aib]QGTFTSDYSKALDEKAAKDFVNWLLDQHPSSGQPPPSC (bridge 16-20) [triple agonist of SEQ ID NO: 102]	23.3%
{Acetyl(2-(4-imidazolyl))}-GEGTFTSDLSKYLDSRRQQLFVQWLKAGGPSSGAPPPSHG (not fully specified; also: ring from underlined residues, positions not shown) [triple agonist of SEQ ID NO: 11]	1.4%
{Acetyl(2-(4-imidazolyl))}-GEGTFISDLSKYMDEQAVQLFVEWLMAGGPSSGAPPPSHG (not fully specified; also: ring from underlined residues, positions not shown) [triple agonist of SEQ ID NO: 12]	0.4%
{Acetyl(2-(4-imidazolyl))}-GEGTFISDYSIQLDEIAVQDFVEWLLAQKPSSGAPPPSHG (not fully specified; also: ring from underlined residues, positions not shown) [triple agonist of SEQ ID NO: 13]	< 0.1%
{Acetyl(2-(4-imidazolyl))}-[Aib]QGTFTSDYSKYLDEKRQKEFVQWLLDTKC (bridge 15-19; not fully specified) [triple agonist of SEQ ID NO: 89]	7.1%
Y[Aib]QGTFTSDYSKYLDEKRAKEFVQWLLCHHPSSGQPPPS (bridge 16-20; not fully specified) [triple agonist of SEQ ID NO: 95]	2.1%
{Acetyl(2-(4-imidazolyl))}-[Aib]EGTFTSDYSIAMDEIHQKDFVDWLLAEKC (bridge 15-19; not fully specified) [triple agonist of SEQ ID NO: 91]	31.9%
{Acetyl(2-(4-imidazolyl))}-[Aib]QGTFTSDYSIAMDEIHQKDFVNWLLNTKC (bridge 15-19; not fully specified) [triple agonist of SEQ ID NO: 94]	0.5%
{Acetyl(2-(4-imidazolyl))}-GQGTFTSDYSIQLDEIAVRDFVEWLKNGGPSSGAPPPSHG (not fully specified; also: ring from underlined residues, positions not shown) [triple agonist of SEQ ID NO: 14]	28%

The binders below were run against human GCG receptor (human, UniProt P47871 26-477) (assay: cell-based or functional assay).
Chain of human GCG receptor (P47871 26-477): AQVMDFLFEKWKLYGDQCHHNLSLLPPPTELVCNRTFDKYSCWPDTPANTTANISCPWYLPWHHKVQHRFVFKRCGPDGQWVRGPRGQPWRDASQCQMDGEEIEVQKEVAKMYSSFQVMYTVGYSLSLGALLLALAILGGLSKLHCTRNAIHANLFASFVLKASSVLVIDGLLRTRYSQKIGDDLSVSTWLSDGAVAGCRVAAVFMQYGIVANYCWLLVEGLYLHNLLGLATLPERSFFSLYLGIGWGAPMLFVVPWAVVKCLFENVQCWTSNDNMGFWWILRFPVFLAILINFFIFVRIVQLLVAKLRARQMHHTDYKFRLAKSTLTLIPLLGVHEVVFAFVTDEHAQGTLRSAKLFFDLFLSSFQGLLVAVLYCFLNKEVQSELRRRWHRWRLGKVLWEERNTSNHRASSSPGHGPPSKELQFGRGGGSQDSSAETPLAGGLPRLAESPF

Binder	In vitro activity (%) compared with native peptide: vs Glucagon
Y[Aib]QGTFTSDYSKALDEKAAKEFVNWLLDQHPSSGQPPPSC (bridge 16-20) [triple agonist of SEQ ID NO: 101]	13.9%
Y[Aib]QGTFTSDYSKALDEKAAKDFVNWLLDHHPSSGQPPPSC (bridge 16-20; not fully specified) [triple agonist of SEQ ID NO: 99]	14.9%
Y[Aib]QGTFTSDYSKYLDEKRAKEFVQWLLDCHPSSGQPPPS (bridge 16-20; not fully specified) [triple agonist of SEQ ID NO: 97]	62.8%
{Acetyl(2-(4-imidazolyl))}-[Aib]QGTFTSDYSIAMDEIHQKDFVNWLLNTC (bridge 15-19; not fully specified) [triple agonist of SEQ ID NO: 87]	< 0.1%
Y[Aib]QGTFTSDYSKALDEKAAKDFVNWLLDQHPSSGQPPPSC (bridge 16-20) [triple agonist of SEQ ID NO: 102]	29.5%
{Acetyl(2-(4-imidazolyl))}-GEGTFTSDLSKYLDSRRQQLFVQWLKAGGPSSGAPPPSHG (not fully specified; also: ring from underlined residues, positions not shown) [triple agonist of SEQ ID NO: 11]	< 0.1%
{Acetyl(2-(4-imidazolyl))}-GEGTFISDLSKYMDEQAVQLFVEWLMAGGPSSGAPPPSHG (not fully specified; also: ring from underlined residues, positions not shown) [triple agonist of SEQ ID NO: 12]	< 0.1%
{Acetyl(2-(4-imidazolyl))}-GEGTFISDYSIQLDEIAVQDFVEWLLAQKPSSGAPPPSHG (not fully specified; also: ring from underlined residues, positions not shown) [triple agonist of SEQ ID NO: 13]	< 0.1%
{Acetyl(2-(4-imidazolyl))}-[Aib]QGTFTSDYSKYLDEKRQKEFVQWLLDTKC (bridge 15-19; not fully specified) [triple agonist of SEQ ID NO: 89]	0.7%
Y[Aib]QGTFTSDYSKYLDEKRAKEFVQWLLCHHPSSGQPPPS (bridge 16-20; not fully specified) [triple agonist of SEQ ID NO: 95]	0.4%
{Acetyl(2-(4-imidazolyl))}-[Aib]EGTFTSDYSIAMDEIHQKDFVDWLLAEKC (bridge 15-19; not fully specified) [triple agonist of SEQ ID NO: 91]	16.8%
{Acetyl(2-(4-imidazolyl))}-[Aib]QGTFTSDYSIAMDEIHQKDFVNWLLNTKC (bridge 15-19; not fully specified) [triple agonist of SEQ ID NO: 94]	< 0.1%
{Acetyl(2-(4-imidazolyl))}-GQGTFTSDYSIQLDEIAVRDFVEWLKNGGPSSGAPPPSHG (not fully specified; also: ring from underlined residues, positions not shown) [triple agonist of SEQ ID NO: 14]	< 0.1%

Each binder was assayed against T1, human GIP receptor (human, UniProt P48546 22-466) (assay: cell-based or functional assay).
T1 sequence (looked up): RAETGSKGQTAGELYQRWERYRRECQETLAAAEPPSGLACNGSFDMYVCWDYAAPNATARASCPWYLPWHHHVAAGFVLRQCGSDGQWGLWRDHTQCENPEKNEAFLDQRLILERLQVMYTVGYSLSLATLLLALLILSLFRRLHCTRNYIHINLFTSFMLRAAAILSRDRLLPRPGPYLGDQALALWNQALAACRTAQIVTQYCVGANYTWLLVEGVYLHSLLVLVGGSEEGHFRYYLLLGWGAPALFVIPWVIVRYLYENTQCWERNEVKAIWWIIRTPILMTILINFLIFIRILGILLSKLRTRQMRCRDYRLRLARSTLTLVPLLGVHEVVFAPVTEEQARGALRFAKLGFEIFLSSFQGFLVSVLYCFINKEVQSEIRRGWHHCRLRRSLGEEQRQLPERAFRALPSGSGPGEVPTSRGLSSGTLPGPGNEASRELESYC

Binder	In vitro activity (%) compared with native peptide: vs GIP
Y[Aib]QGTFTSDYSKALDEKAAKEFVNWLLDQHPSSGQPPPSC (bridge 16-20) [triple agonist of SEQ ID NO: 101]	40.1%
Y[Aib]QGTFTSDYSKALDEKAAKDFVNWLLDHHPSSGQPPPSC (bridge 16-20; not fully specified) [triple agonist of SEQ ID NO: 99]	57.7%
Y[Aib]QGTFTSDYSKYLDEKRAKEFVQWLLDCHPSSGQPPPS (bridge 16-20; not fully specified) [triple agonist of SEQ ID NO: 97]	2.6%
{Acetyl(2-(4-imidazolyl))}-[Aib]QGTFTSDYSIAMDEIHQKDFVNWLLNTC (bridge 15-19; not fully specified) [triple agonist of SEQ ID NO: 87]	< 0.1%
Y[Aib]QGTFTSDYSKALDEKAAKDFVNWLLDQHPSSGQPPPSC (bridge 16-20) [triple agonist of SEQ ID NO: 102]	58%
{Acetyl(2-(4-imidazolyl))}-GEGTFTSDLSKYLDSRRQQLFVQWLKAGGPSSGAPPPSHG (not fully specified; also: ring from underlined residues, positions not shown) [triple agonist of SEQ ID NO: 11]	< 0.1%
{Acetyl(2-(4-imidazolyl))}-GEGTFISDLSKYMDEQAVQLFVEWLMAGGPSSGAPPPSHG (not fully specified; also: ring from underlined residues, positions not shown) [triple agonist of SEQ ID NO: 12]	< 0.1%
{Acetyl(2-(4-imidazolyl))}-GEGTFISDYSIQLDEIAVQDFVEWLLAQKPSSGAPPPSHG (not fully specified; also: ring from underlined residues, positions not shown) [triple agonist of SEQ ID NO: 13]	< 0.1%
{Acetyl(2-(4-imidazolyl))}-[Aib]QGTFTSDYSKYLDEKRQKEFVQWLLDTKC (bridge 15-19; not fully specified) [triple agonist of SEQ ID NO: 89]	< 0.1%
Y[Aib]QGTFTSDYSKYLDEKRAKEFVQWLLCHHPSSGQPPPS (bridge 16-20; not fully specified) [triple agonist of SEQ ID NO: 95]	< 0.1%
{Acetyl(2-(4-imidazolyl))}-[Aib]EGTFTSDYSIAMDEIHQKDFVDWLLAEKC (bridge 15-19; not fully specified) [triple agonist of SEQ ID NO: 91]	0.3%
{Acetyl(2-(4-imidazolyl))}-[Aib]QGTFTSDYSIAMDEIHQKDFVNWLLNTKC (bridge 15-19; not fully specified) [triple agonist of SEQ ID NO: 94]	< 0.1%
{Acetyl(2-(4-imidazolyl))}-GQGTFTSDYSIQLDEIAVRDFVEWLKNGGPSSGAPPPSHG (not fully specified; also: ring from underlined residues, positions not shown) [triple agonist of SEQ ID NO: 14]	< 0.1%
